Tests used:
[1] = Biotin-PGE2 ELISA (PGE2-biotinamide binding to captured IgG)
Method: Enzyme linked immunosorbent assays to screen for antibodies that bind prostaglandin E2 were performed according to at least one of the two following methods.
ELISA plates (Costar 3369, Corning, N.Y.) were coated with 50 μl of anti-host Fc IgG (Sigma, St. Louis, Mo.) at 2 μg/ml in PBS (Invitrogen Carlsbad, Calif.). Following an overnight incubation at 4° C., washed with PBS and the plate was blocked with 200 μl Superblock (Pierce #37535, Rockford, Ill.). The IgG containing samples were diluted to 1 μg/ml in Assay Buffer (10% Superblock in PBS containing 0.05% Surfactamps (Pierce #37535, Rockford, Ill.) and 50 μl/well added to each well and incubated for 1 hour at room temperature. Plates were washed four times with Tween-Tris Buffered Solution (TTBS). […] The titration curve samples were added to each IgG sample at 50 μl/well and incubated for 1 hour at room temperature. The plates were washed as previously described and 50 μl of 1:5000 dilution of streptavidin polyhrp40 (Fitzgerald Industries, Concord, Mass.) in Assay Buffer was added to each well and incubated for 45 minutes at room temperature. A final wash step was performed and the plates were developed using a single step TMB system (Sigma #T8665, St. Louis, Mo.) and 100 μl/well 2N H2SO4. Plates were read at 450 nm on a Molecular Devices Spectramax plate reader (Sunnyvale, Calif.). EC50 was determined using GraphPad Prism 5 (GraphPad Software, La Jolla, Calif.).

[2] = Biotin-PGE2 competition ELISA (prostaglandin selectivity); format: binding
Method: Competition enzyme linked immunosorbent assays were performed to determine prostaglandin binding specificity for antibodies that bind prostaglandin E2, according to at least one of the two following methods.
ELISA plates (Costar 3369, Corning, N.Y.) were coated with 50 μl/well of anti-host Fc IgG (Sigma, St. Louis, Mo.) at 2 μg/ml in PBS (Invitrogen, Carlsbad, Calif.). Following an overnight incubation at 4° C., the plate was blocked with 200 μl Superblock (Pierce #37535, Rockford, Ill.). The IgG samples were diluted to 6 μg/ml in Assay Buffer (10% Superblock in PBS containing 0.05% Surfactamps (Pierce #37535, Rockford, Ill.). The PGE2-biotinamide was diluted to 3 nM in Assay Buffer. A titration curve in Assay Buffer was prepared for the prostaglandins PGA2 (Cayman Chemicals, Ann Arbor, Mich.), PGD2 (Cayman Chemicals, Ann Arbor, Mich.) and PGE2 (Cayman Chemicals, Ann Arbor, Mich.) starting at 300 nM by a 1:10 serial dilution. The reagents were added to tubes at a volume of 50 μl each/tube and preincubated for 1 hour at room temperature. Following the preincubation, the mix was transferred to the blocked plates and allowed to incubate for 1 hour at room temperature. Next, the plates were washed four times with Tween 20-Tris buffered solution (TTBS). Streptavidin polyhrp40 in Assay Buffer (Fitzgerald Industries, Concord, Mass.) at a 1:5000 dilution was then added to the wells and incubated for 45 minutes at room temperature. A final wash step was performed and the plates were developed using a single step TMB system (Sigma #T8665, Sigma, St. Louis, Mo.) and 100 μl/well 2N H2SO4. Plates were read at 450 nm on a Molecular Devices Spectramax plate reader (Sunnyvale, Calif.). […] IC50 number was determined using GraphPad Prism 5 (GraphPad Software, La Jolla, Calif.). The cross reactivity index was then calculated by IC50 of PGE2/IC50 of other prostaglandin(s).

[3] = Biotin-PGE2 45 μM, IgG-containing COS7 media

Row | Binding to PGE2-Biotinamide (OD450) ([1]; Biotin-PGE2 0 μM) | Binding to PGE2-Biotinamide (OD450) ([1]; Biotin-PGE2 0.1 μM) | Binding to PGE2-Biotinamide (OD450) ([1]; Biotin-PGE2 0.3 μM) | Binding to PGE2-Biotinamide (OD450) ([1]; Biotin-PGE2 1 μM) | Binding to PGE2-Biotinamide (OD450) ([1]; Biotin-PGE2 2 μM) | Binding to PGE2-Biotinamide (OD450) ([1]; Biotin-PGE2 5 μM) | Binding to PGE2-Biotinamide (OD450) ([1]; Biotin-PGE2 15 μM) | Binding to PGE2-Biotinamide (OD450) [1, 3] | EC50 [1] [nM] | ability to bind PGE2 in ELISA [1] | Molecule | PG Selectivity in Biotin-PGE2 Competition ELISA (CRI %) PGA2 [2] [%] | PG Selectivity in Biotin-PGE2 Competition ELISA (CRI %) PGD2 [2] [%] | PG Selectivity in Biotin-PGE2 Competition ELISA (CRI %) PGE1 [2] [%]
1 | 0.07 | 0.13 | 0.21 | 0.29 | 0.27 | 0.67 | 0.82 | 0.88 | – | – | K1B: human anti-PGE2 antibody from PROfusion mRNA display; VH SEQ ID NO 5, VL SEQ ID NO 9 (antibody, V domains shown) VH: EVQLVQSGAEVKRPGASVKVSCKTSGYTFTNYDINWVRLAPGQGLEWMGCMNPTTGKTGYAQKFQGRVTMTRDTTIATAYMELSRLTSEDTAVYYCARGRGYSPGYGVAYADYWGQGTLVTVSS VL: DIQLTQSPSSLPASVGDRVTITCRASQSISTYLNWYQQTPGKAPSLLIYAASSLQSGVPSRFSGSGSGTDFTLTISSLQPEDFATYYCQQSYSPPPTFGGGTKVEIKR | – | – | –
2 | 0.04 | 0.04 | 0.04 | 0.05 | 0.07 | 0.07 | 0.07 | 0.07 | – | – | L11: human anti-PGE2 antibody from PROfusion mRNA display; VH SEQ ID NO 25, VL SEQ ID NO 29 (antibody, V domains shown) VH: EVQLVQSGPELKKPGTSVKVSCKASGYTLTTYAMNWVRQAPGQGLEWMGWIDTSTGNPTYAPGFLGRFVFSLDTSLSTTYLQISSLKPDDTAVYYCARSSHTRPGDFWGQGTLVTVSS VL: QSGLTQPPSVSGTPGQRVTISCSGSESNVGTNSVNWYQQLPGAAPRLLIRGNSDRPSGVPDRFSASKSGTSASLAISRLQSEDEADYFCGACDGRLSGLYVFGTGTKVTVL | – | – | –
3 | 0.11 | 0.22 | 0.34 | 0.51 | 0.61 | 0.67 | 0.78 | 0.58 | – | – | K3A: human anti-PGE2 antibody from PROfusion mRNA display; VH SEQ ID NO 13, VL SEQ ID NO 17 (antibody, V domains shown) VH: EVQLVQSGAETKKPGASVEVSCKASGYSFTEYGISWVRQAPGQGPEWMGCISPYNGKLHYAQEFQGRVTMTTGTSTNTAYMELGSLRSDDTAVYYCARGGFSFYDSSGYYYVTDHWGQGTLVTVSS VL: DIRLTQSPSSLSASVGDRVTITCRASQSIGSYLNWYQQKSGKAPKLLIYAASKLQSGVPSRFSGSGFGTDFTLTISSLQPEDSATYYCQQSDTTPFTFGQGTKLEIKR | – | – | –

Further lines, the molecule ahead of its results:

Row | Molecule | Binding to PGE2-Biotinamide (OD450) ([1]; Biotin-PGE2 0 μM) | Binding to PGE2-Biotinamide (OD450) ([1]; Biotin-PGE2 0.1 μM) | Binding to PGE2-Biotinamide (OD450) ([1]; Biotin-PGE2 0.3 μM) | Binding to PGE2-Biotinamide (OD450) ([1]; Biotin-PGE2 1 μM) | Binding to PGE2-Biotinamide (OD450) ([1]; Biotin-PGE2 2 μM) | Binding to PGE2-Biotinamide (OD450) ([1]; Biotin-PGE2 5 μM) | Binding to PGE2-Biotinamide (OD450) ([1]; Biotin-PGE2 15 μM) | Binding to PGE2-Biotinamide (OD450) [1, 3] | EC50 [1] [nM] | ability to bind PGE2 in ELISA [1] | PG Selectivity in Biotin-PGE2 Competition ELISA (CRI %) PGA2 [2] [%] | PG Selectivity in Biotin-PGE2 Competition ELISA (CRI %) PGD2 [2] [%] | PG Selectivity in Biotin-PGE2 Competition ELISA (CRI %) PGE1 [2] [%]
4 | K7H: human anti-PGE2 antibody from PROfusion mRNA display; VH SEQ ID NO 21, VL SEQ ID NO 24 (antibody, V domains shown) VH: EVQLVQSGSELKKPGASVKVSCKASGYSFTEYGISWVRQAPGQGPEWMGCISPYNGKLHYAQKFLGRVTMTTDTSTNTAYMELRSLKSDDTAVYYCARGGFSSYDSSGYYYVTDHWGQGTLVTVSS VL: DIRLTQSPSSLPASVGDRVTITCRASQSISTYLNWYQQTPGKAPSLLIYAASSLQSGVPSRFSGSGSGTDFTLTISSLQPEDFATYYCQQSYSPPPTFGGGTKVEIKR | 0.04 | 0.03 | 0.04 | 0.06 | 0.10 | 0.13 | 0.29 | 0.24 | – | – | – | – | –
5 | L21: human anti-PGE2 antibody from PROfusion mRNA display; VH SEQ ID NO 33, VL SEQ ID NO 36 (antibody, V domains shown) VH: EVQLVQSGSELKKPGTSVKVSCKASGYTLTTYAMNWVRQAPGQGLEWMGWIGTSTGNPTYAQGFTGRFVFSLDTSVNTAHLQIYSLKAEDTALYYCARSSLTRPADYWGQGTLVTVSS VL: QSGLTQPPSVSGAPGQRVTISCFGSSSNIGAGYDVHWYQQLPGAAPKLLIFGNNNRPSGVPDRFSGSKSGTSASLAITGLQAEDEADYYCQSCDSSLSGAVFGTGTKVTVL | 0.08 | 0.10 | 0.16 | 0.25 | 0.32 | 0.31 | 0.41 | 0.46 | – | – | – | – | –
6 | 2B5-7.0: recombinant anti-PGE2 antibody from solved 2B5 sequence; VH SEQ ID NO 40, VL SEQ ID NO 41 (antibody, V domains shown) VH: QVQLQQSGPELVRPGSSVKISCKASGYTFTKYWLGWVKQRPGHGLEWIGDIYPGYDYTHYNEKFKDKATLTVDTSSSTAYMQLSSLTSEDSAVYFCARSDGSSTYWGQGTLVTVSA VL: DVLMTQTPLSLPVSLGDQASISCTSSQNIVHSNGNTYLEWYLQRPGQSPKLLIYKVSNRFSGVPDRFSGSGSGTVFTLKISRVEAEDLGVYYCFQVSHVPYTFGGGTKLEIKR | – | – | – | – | – | – | – | – | 2.46 | potently bound to PGE2 | 0.11 | <0.01 | 27
7 | 2B5-9.0: recombinant anti-PGE2 antibody from solved 2B5 sequence; VH SEQ ID NO 44, VL SEQ ID NO 45 (antibody, V domains shown) VH: QVQLQQSGPELVRPGSSVKISCKASGYTFTKYWLGWVKQRPGHGLEWIGDIYPYGDYTHYNEKFKDKATLTVDTSSSTAYMQLSSLTSEDSAVYFCARSDGSSTYWGQGTLVTVSA VL: DVLMTQTPLSLPVSLGDQASISCTSSQNIVHSNGNTYLEWYLQRPGQSPKLLIYKVSNRFSGVPDRFSGSGSGTVFTLKISRVEAEDLGVYYCFQVSHVPYTFGGGTKLEIKR | – | – | – | – | – | – | – | – | 3.04 | potently bound to PGE2 | 0.24 | <0.01 | 23

Reference: US8624002B2, “Prostaglandin E2 binding proteins and uses thereof” (AbbVie, Inc., priority 2008, dated 2014)
